From the nanobody polyreactivity screen of Harvey et al. (2022)

Assay: yeast display, Sf9 membrane polyspecificity reagent, FACS + sequencing; frameworks hold sequencing errors
Procedure, shortened: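 In a synthetic yeast display library (Saccharomyces cerevisiae BJ5465), nanobody expression was induced with galactose for 36–48 hours. FACS gates were set low and high (top ~1%) using anti-HA fluorescence for expression and streptavidin fluorescence for binding of the Sf9 membrane reagent. Each polyreactivity label is drawn from the gate of origin.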

Row | Sequence | polyreactivity (PSR sort gate)
1 | QVQLVESGGRLVQAGGSLRLSCAASGLTFGSYAMGWYRQAPGKESELVAGISARAGRTYYADSVKGRFTISRDNAKNTVYLQMNSLKPEDTAVYYCAARVYSRYHTKGFSNYQYDYWGQGTQVTVSS | high polyreactivity
2 | QVQLVESGGGLVQAGGSLRLSCAASGFTFRRNAMGWYLQAPGKERELVARISSGGSTNYADSVKGRFTISRDNAKNTVYLQMNSLKPEDSAVYYCATGKGPYPYRQRYGYWGQGTKVTVSS | high polyreactivity
3 | QVQLEESGGGVVQAGGSLRLSCAASGSIFRKYAMGWYRQAPGKERELVATISWNGGRTHYADSVKGRFTISRDNAKNTVYLLMNSLKPEDTAVYYCNKDAASFRHFYGYGYWGQGTQVTVSS | low polyreactivity
4 | QVQLVESRGGLVQAGGSLRLSCAASGFIFVSYTMGWYRQAPGKERDLVATITLSDGSTYYADSVQGRFTISRDNAKNTVYLQMNSLKPEDTAVYSGNKDKVVVRYDYWGQGTQVTVSS | low polyreactivity
5 | QVQLVESGGGLVQAGGSLRLSCAASGFTFIPNAMGWYRQAPGKERELVAAISTGGSTYYADSVKGRFTISRDNAKNTVYLQMNSLKPEDTAVYYCAAGILVLKLYFSSYDYWGQGTEVTVSS | low polyreactivity
6 | QVQLVESGGGLVQAGGSLRLSCAASGYTFFYYAMGWYRQAPGKERELVASISWNGGSTYYADSVKGRFTISRDNGKNTVYLQMNSLKPEDTAVYYCAADSPRPRLTSYGYIGGEYYYWGQGTQVTVSS | low polyreactivity
7 | QVQLVESGGGLVHAGGRLRLSCAASGSIFDYYAMGWSRPAPGKERELVADNTSGGSTNYADSVKGRFTISRDNAKNTVYLQMNSLKPEDTAVYYCATRIGYSDWPDGVWDLDDSEYYYWGQGTQVTVSS | low polyreactivity
8 | QVQLEESGGGLLQAGGSLRLSCAATGSTFVTYAMGWYRQAPGKERELVAAISSGGGNTYYADSVKGRFTISRDNAMNSVYLQMHSLKPEDTAVYLCAADNPRSEYDYWGQGTQVTVSA | high polyreactivity
9 | QVQLVESGGGLVQAGGSLRLRCAASGRTVVYYAMGWSRPAAGKETEFVATITSSGGSTYYADSVKGRFTISRDNAKNSVYLQMNSLKPEDTAVNYCAASPNIGYSKVSKYYYRGQGTQVTVSS | high polyreactivity
10 | QVQLVESGGGLVQAGGSLRLSCAASGFTFGYYVRGWYRQAPGKERELVAAITSGGSTYYADSVKGRFTISRDNAKNTVYLQMNSLKPEDTAVYYCAAFLGATYYYWGQGTQVTVSS | high polyreactivity
11 | QVQLVESGGGLVQAGGSLRLSCAASGRTFGYYTMGWSRQAPGKERDLVATISSDGTTNYADSVKGRFTISRDNAKNTVYLQMNSLKPEDTAVYYCNADFRLQYYYRIYDYWGQGTQVTVSS | low polyreactivity
12 | QVQLVESGGGLVQAGGSLRLSCAASGRIFAYYVMGWYRQAPGKERELVASISSGGGTYYADSVKGRFTISRDNAKNTVYLQMNSLKPEDTAVYYCAARWRRYVYPDGHLFWYDYWGQGTQVTVSS | high polyreactivity
13 | QVQHVESGGGLVQAGGSLRLSCAASGGTFYGYAMGCYRQAPGKERELVAVITYSGGSTYYADSVKGRFTISRDNAKNTVYLQMYSLKPEDTAVYYCAADVKYGYDWGQGTQVTVSS | high polyreactivity
14 | QVQLEESGGGLVQAGGILRLSCAASGSTFVNNAMGWYRQAPGKERELVAAITSGSRTKYADSVKGRFTMSLDNAKYTVYFQMNSLQPEDTAVYYWNTMRVGWGQGTQVTVSS | high polyreactivity
15 | QLQLVESGGGLVQAGGSLRLSCAASGSTFYLYDLGWYIQAPGKESELVAAITSSGGSTYYADSVKGRFTISLDNAKNTVYLQMTSLKPEDTAVYYCAARYRGWVYSYDYWGQGTQVTVSS | low polyreactivity
16 | QVQLVESGGGLVQAGGSLRLSCAASGSIFKYYAMGWYRQAPGKERELVAAISSTGGSTYYAHSLKGRFTISRDNANYTVYLQMNSLKTEDTAVYYCNTTYIWKNYDYWGQGTQVTVSS | high polyreactivity
17 | QVQLLESGVGLVQAGGSLRLSSAASGRNFQQNAMAWYRQAPGKERELVAAINSRGGRTYYADSVKGRFTISRDNAKNTVYLQMNSLKPEDTAVYYCGAYFRNYRSYYYWGQGTQVTVSS | high polyreactivity
18 | QVQLVESGGGLVQAGGRLRLSCAASGFTYPEYAMGWYRQAPGKEMELVAAIDSGDGSTYYADSVKGRFTISRDNAKNTVYLQMISLKPEDTAVYYCATDRYPHSATPGDYWGQGTQVTVSS | low polyreactivity
19 | QVQLVESGGGLVQAGGSLRLSCAASGSIFYRITMGWYRQAPGKERELVAAISTNGGSTYYADSVKGRFTISRDNAKNSVYLQMNSLKPEDTAVYYCAADLRRSDYDYWGQGTQVTVSS | high polyreactivity
20 | QVQLVEAGGGLVQAGGSLRLSCAASGGTFNSNAMGWYRQAPGKERELGASITWRGGTYYADSVKGRFTISRDNAKNTVYLQMNSLKPEDTAVYYCAARGTIPGIHWIYYYWGQGTQVTVSS | high polyreactivity
21 | QVQLVESGGGLVQAGGSLRLSCAASGRTFRYNAMGWYRQAPGKERELVAAITWGGGSTYYADSVKGRFTISRDNAKYTVYLQMNSLKPEDTAVYYCNADYIGNYQSIYQYDYWGQGTQVTVSS | low polyreactivity
22 | QVQLVESGGGLVQAGGSLRLSCAASGRILDYNAMGWYRQAPGKERELVADISGSGDSTYYADSVKGRFTISRDNAKNTVYLQMNSLKPEDTAVYYCNRQTVRPHSRAGYDYWGQGTQVTVSS | low polyreactivity

Row | Sequence | polyreactivity (PSR sort gate)
23 | QVQLVESGGGLVQAGGSLRLSCAASGSTFRYYAMGWYRQAPGKERDLVAAINRSGGSTYYADSVKGRFTISRDIAKNTVYLQMNSLKPEDTAVYYCGAPWGRHYTNPDDYWGQGTQVTVSS | high polyreactivity
24 | QVQLVESGGGLVQAGGSLRLSCAASGGTIDYAMGWYSQAPGKERELVAAISKHGGRTYYADSVKGRFTISRDNAKYTVYLQMNSLKPEDTAVYYCAADAFRGFYWGQGTQVTVSS | high polyreactivity
25 | QVQLVESGGGLVQAGGSLRLSFAASGFTFRLYAMGWYRQAPGKERELVAAITSSSGSTYYADSVKGRFTISRDNAKNTVYLQMNSLKPEDTAVYYCNADRGDSSRRYGYWGQGTQVTVSS | high polyreactivity
26 | QVHLVESGGALVQAGGSLRLSCAASGNTFNANAMGWYRQAPGKERELVAVISANGGRTYYADSVKGRFTISRDNAKNTVYLQMNSLIPEDTAVYYCAADSSGEYPGGYWGQGTQVTVSS | low polyreactivity
27 | QVQLVESGGGLVQAGGSLRFSCAASGSIFDRYAMGWYRQAPGKERELVAAITYSGGSTYYADSVKGRFTISRDNAKNTVYLQMNSLKPEDTAVYYCATETYPQGRYYQSYDYWGQGTQVTVSS | low polyreactivity
28 | QVQLVESGGGLVQAGGSLRLSCAASGRILYYYAMGWYRQAPGKERELVAAINSSGGSTYYADSVKGRFTISRDNAKNTVYLQMNSLKPEDTAVYYCAAVRSKLYYYWGQGTQVTVSS | high polyreactivity
29 | QVQLEESGGGLVQAGGSLRLSCAASGIIFPRNAMGWYRQAPGKERELVAAITNTGSTKYADSVKGRFTISRDNAKNSVYLHMNSLKPEDTAVYYCAKELGSVPSPSLYDYWGQGTQVTVSS | low polyreactivity
30 | QVQLVESGGGLVQAGGSLRLSCAASGSTFGSNDLGWYRQAPGQERELVAAITWSGGSTFYADSVKGRFTISRDNAKNTVYLQMNSLKPEDTALYSCAVSTEVNRYHAKYDYRGQGTQVTVSS | low polyreactivity
31 | HVQLVESGGGLVQAGGSLRLSCAASGSIFIGNAMGWYRQAPGKERELVAAISKSDGRTYYADSVKGRFTISRDNAKNTVYLQMNSLKPEDTAVYFCAADAYWEPKVGFSLFDYWGQGTQVTVSS | low polyreactivity
32 | QVQLVESGGGLVQAGGSLRLSCAASGLIFEGYAMGWYRQAPGKERELVAAISSAGSTYYADSVKGRFTISRDNAKNTVYLQMNSLKPEDTAVYYCNARRRRLVSYYYWGQGTQVTVSS | high polyreactivity
33 | QVQLVESGGGLVQAGGSLRLSCAASGSIFPHNAMGWYRQAPGKERELVAAISVSGGSTYYADSVKGRFTISRDNAKNTVYLQMNSLKPEDTAVYYCATRYGRARAYYYWGQGTQVTVSS | high polyreactivity
34 | QVQLVESGGGIVHAGCSLRLSSTASRFIFWWYAMAGYRQAHGKERELVATITASVGSTNYADSVKGRFTISRDNAKNTVYLQMNSLNPEDTAVYYCATDIIGAIRDWDHTRMDYWGQGTQVTVSS | low polyreactivity
35 | QVQLVESGGGLVQAGGSLRLSCAASGRIFWTNAMGWYRQEPGKERELVAAISYNGASTFYADSVKGRFTISLDNAKNTVNLQMNSLKPEDTAVYSCNAYSSRYRYNYWGQGTQVTVSS | high polyreactivity
36 | QVQLVESRGGLVQAGGSLRLSSAASGLTLYGYTMGWYRQAPGKERELVATMTSGRDSTYYADSVKGRFTISGDNAKNTFYLEMHCLKPEDTAVYYCGAPYAGWRDGGDYWGQGTQVTVSS | low polyreactivity
37 | QVQLVESRGGLVQAGGSLRLSCAASGRIFVVYTMGWYRQAPGKERELVAAISWRGGTTYYADSVKRRFTISRDNAKTTVYLQMTSLIPEDTAVSYCATREWSPRGSYDYSGQGTQVTVSS | high polyreactivity
38 | QVQLVESGGGLVQAGGSLRLSCAASGRTFTYYAMGWYIHAPGKERELVAAITWSGGSTYYADSVKGRFTISRDNAKNSVYLHMNSLKPEDTAVYYCNKTYRQGWSWVSYRSYGSGEGYWGQGTQVTVSS | high polyreactivity
39 | QVQLVESGGGLVQAGGSLRLSCASSGIIFYAYAMGWYRQAPGKERELVAAINFNTGRTYYADSVKGRFTISRDNAKNTVYLQMNSLKPEDTAVYYCAKSSYRNSGERDYWGQGTQVTVSS | high polyreactivity
40 | QVQLVESGGGLVQAGGSLRLSCAASGRIFGYNTMGWYRQAPGKERELVAAINSGGRTYYADSVKGRFTISRDNAKNTVYLQMNSLKPEDTAVYYCAKPGLYFATFKKYDYWGQGTQVTVSS | high polyreactivity
41 | QVQLVESGGGLVQAGGSLRLSFAASGRTFVLYTMGWYRQAPGKERELVAAISVGGALTYYADSVRGRFTISRDNAKNTVYLQMNSLKPEDSAVYYCAARRHSRVKYRDYWGQGTQVTVSS | high polyreactivity
42 | QVQLVESGGGLVQAGGSLRLSCAASGSIFYRYAMGWYRQAPGKERELVAAISRSGGRTYYADSVKGRFTISRDNAKNTVYLQMNSLKPEDTAVYYCAAESTVGTDLGGDSWGQGTQVTVSS | high polyreactivity
43 | QVQLVESGGGLVQAGGSLRLSCAASGSIFWRYAMGRYRQAPGKEREVVAAISGSGVRTSYADSVKGRFTISRDNAKNTVYLQMNSLKAEDTAVYYCATDIRSGRYYWGQGTQVTVSS | high polyreactivity
